Results as given in article PMC12946210.

Biological target: FBH1 (F-box helicase 1, isoform 4);SKP1;CUL1;RBX1 (human;human;human;human, UniProt Q2TAK1;P63208;Q13616;P62877 1-969;1-163;1-776;1-108, |||)
Assay: EMSA

B1: Lag gap fork (mixed)
DNA 1: CTCAGGACTCAGTTCGTCAGCCCTTGACAGCGATGGAAGC
DNA 2: CGAAGGTAGCGACAGTTCCCCTGACGAACTGAGTCCTGAG
DNA 3: GCTTCCATCGCTCTCAAG
DNA 4: TCGCTACCTTCG
binding result: binds
